Test results reported in patent US20230303711A1.

Biological target: Fc-tagged human CD47-ECD protein (CD47-Fc) (human)
Experiment: ELISA on coated human CD47-Fc; row printed as Affinity (µg/mL)

Fc-tagged human CD47-ECD protein (CD47-Fc) (human), sequence (chain, as listed by the source limits assumed): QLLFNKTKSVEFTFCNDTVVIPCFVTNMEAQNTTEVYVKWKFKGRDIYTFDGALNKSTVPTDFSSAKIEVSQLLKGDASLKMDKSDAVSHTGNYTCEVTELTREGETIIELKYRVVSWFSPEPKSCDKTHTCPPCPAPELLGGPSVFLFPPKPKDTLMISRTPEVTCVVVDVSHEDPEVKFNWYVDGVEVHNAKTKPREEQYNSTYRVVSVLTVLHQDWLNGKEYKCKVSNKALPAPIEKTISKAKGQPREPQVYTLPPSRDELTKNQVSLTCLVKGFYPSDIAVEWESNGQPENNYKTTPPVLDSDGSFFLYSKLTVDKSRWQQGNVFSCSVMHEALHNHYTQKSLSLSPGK

- EC50: 0.088 µg/mL
B1: Antibody 17 (antibody, human IgG1, kappa, V domains shown)
VH: QVQLQESGPGLVKPSETLSLTCTVSGGSLDNYYWSWIRQPPGKGLEWIGYIYYSGNTNYNPSLKSRVTISVDTSKNQFSLRLRSVTAADTAVYYCARGGRFLERYWGQGTLVTVSS
VL: DIQMTQSPSSVSASVGDRVTISCRANQAIGTWLAWYQQKPGKAPKLLIYAASTLQSGVPSRFSGSGSGTEFTLTISSLQAEDVAVYYCQQYYTTPLTFGGGTKLEIKR
